According to patent US20230374132A1 (Innovent, published 2023):
Like-named read-outs stand apart in the source and are kept apart here.

Legend:
[1] = molecular target: T1, human CLDN18.2 on tumor cells (NUGC-4; DAN-G-hCLDN18.2) (human, UniProt P56856-2 1-261); assay: cell-based or functional assay
T1 sequence (looked up): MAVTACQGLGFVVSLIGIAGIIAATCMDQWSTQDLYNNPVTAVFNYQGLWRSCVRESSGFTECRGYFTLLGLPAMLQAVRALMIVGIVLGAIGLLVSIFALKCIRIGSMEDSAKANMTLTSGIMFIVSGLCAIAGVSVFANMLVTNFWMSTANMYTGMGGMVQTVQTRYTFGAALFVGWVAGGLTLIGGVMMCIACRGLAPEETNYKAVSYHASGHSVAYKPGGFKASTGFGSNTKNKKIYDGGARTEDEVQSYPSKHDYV

[2] = molecular target: T2, human Claudin 18.2 (GenScrip, P50251802) (human, UniProt P56856-2 1-261, limits assumed); assay: SPR, antigen on chip
T2 construct: bought antigen coupled to the chip; also called human CLDN18.2; CLDN18.2
T2 sequence (looked up): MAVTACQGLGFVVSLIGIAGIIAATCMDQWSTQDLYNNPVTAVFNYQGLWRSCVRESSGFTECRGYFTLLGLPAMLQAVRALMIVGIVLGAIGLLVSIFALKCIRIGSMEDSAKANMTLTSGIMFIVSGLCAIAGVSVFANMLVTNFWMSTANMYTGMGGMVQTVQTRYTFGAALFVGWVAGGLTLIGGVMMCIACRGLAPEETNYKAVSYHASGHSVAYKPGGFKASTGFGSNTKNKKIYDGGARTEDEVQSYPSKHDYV
Experimental: The equilibrium dissociation constant (KD) of binding to human CLDN18.2 was determined by surface plasma resonance (SPR). […] After coupling, 1 M ethanolamine was injected to block the remaining activation sites. According to the manufacturer's instructions, the binding and dissociation between the chip surface antigen and various bispecific antibodies in the mobile phase were detected by Biacore (GE Healthcare, T200) to obtain the affinity and kinetic constants. The antibody after serial dilution (0-100 nM, twice dilution) flowed through the chip surface in order from low concentration to high concentration, with binding time of 180 s and dissociation time of 600 s. Finally, 10 mM Glycine pH 1.5 (GE Healthcare, BR-1003-54) was used to regenerate the chip. The resulting data were analyzed using the Biacore T200 analysis software and the 1:1 combination model.

[3] = molecular target: T3, human CD3 E&D complex protein (Sino Biological Inc., CT026H0323H) (human, UniProt P07766 23-126; P04234 22-105); assay: BLI, antibody on sensor
T3 construct: bought heterodimer; also called human CD3 protein (CT026H0323H)
Experimental: The equilibrium dissociation constant (KD) of the bispecific antibody of the invention binding to human CD3 protein was determined by the Biolayer Interferometry (BLI). The affinity determination of BLI method was carried out according to the existing methods (Estep, P et al., High throughput solution based measurement of antibody-antigen affinity and affinity binding. MAbs, 2013.5 (2): 270-8).
An appropriate number of AHC (18-5060, Fortebio) sensors was taken and soaked in SD buffer (1×PBS, BSA 0.1%, Tween-20 0.05%) according to the number of samples at half an hour before the experiment. 100 μl of SD buffer, each bispecific antibody and human CD3 protein (CT026H0323H, Sino Biological Inc.) were added into 96-well black polystyrene semi-quantitative micro-well plate (Greiner, 675076). Fortebio Octet Red96 was used for detection, and the sensor position was selected according to the sample position. The setting parameters of the instrument were as follows: operation steps: Baseline, Loading-1 nm, Baseline, Association and Dissociation; the operation time of each step depended on the speed of sample combination and dissociation. The rotational speed was 1000 rpm and the temperature was 30° C. ForteBio Octet analysis software was used to analyze KD value.

[4] = molecular target: T3, human CD3 E&D complex protein (Sino …); assay: BLI, antibody on sensor; remark: listed apart in the source
[5] = molecular target: T4, human CD3E&G complex (Sino Biological Inc., CT041-H0305H) (human, UniProt P07766 23-126; P09693 23-116); assay: BLI, antibody on sensor
T4 construct: bought heterodimer; also called human CD3E&G antigen

[6] = molecular target: T5, human CD3 complex on Jurkat cells (human, UniProt P07766 23-207; P04234 22-171; P09693 23-182); assay: flow cytometry on Jurkat cells (human CD3 complex), method of Example 3.2
T5 construct: whole, on cells; natural CD3 complex of Jurkat T cells (also used here for CD3 on T cells of human PBMC); also called human CD3 at the cell level; CD3 on T cells
Experimental: (§1) Jurkat cells are immortalized human T lymphocytes, which express human CD3 complex. The cell line is used to detect the binding of the antibody to the cell. The detailed operation was as follows: Jurkat cells (Promega, J1621) was inoculated into U-shaped 96-well plate, 2×10⁵ for each well. The antibodies to be detected at a series of concentration gradients (the initial concentration of antibody molecule is 500 nM, 3 folds serial dilution) was added into the corresponding cell well, incubated at 4° C. for 30 minutes, and then PBS was used to wash out the unbound part. The sheep anti-human Fc PE fluorescent second antibody (Southern Biotech, J2815-5H87B) was added, then incubated at 4° C. for 15 minutes. and detected by flow cytometry ([…] BD). […] Some of these antibodies were selected to make a further binding curve at cell level.

[7] = molecular target: T5, human CD3 complex on Jurkat cells; assay: flow cytometry on Jurkat cells (human CD3 complex), 'Jurkat cell line binding', method of Example 3.2
Experimental: as §1

[8] = molecular target: T3, human CD3 E&D complex protein (Sino …); assay: BLI, antibody on sensor; remark: listed apart in the source
[9] = molecular target: T6, cynomolgus monkey CD3 E&D complex protein (Sino Biological Inc., CT032-00323H) (cynomolgus monkey, UniProt Q95LI5 22-117; Q95LI8 22-105); assay: BLI, antibody on sensor
T6 construct: bought heterodimer

[10] = molecular target: T5, human CD3 complex on Jurkat cells; assay: flow cytometry on Jurkat cells (human CD3 complex), 'Jurkat cell line binding', Example 3.2 [cont) D]
Experimental: as §1

T3 sequence (P07766 23-126, chain 1 of 2): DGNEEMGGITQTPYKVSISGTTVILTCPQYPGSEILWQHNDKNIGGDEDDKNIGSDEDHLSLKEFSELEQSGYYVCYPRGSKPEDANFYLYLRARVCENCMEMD
T3 sequence (P04234 22-105, chain 2 of 2): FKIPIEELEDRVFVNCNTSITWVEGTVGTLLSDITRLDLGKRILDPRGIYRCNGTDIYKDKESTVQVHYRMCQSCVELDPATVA
T4 sequence (P07766 23-126, chain 1 of 2): as the sequence (P07766 23-126, chain 1 of 2) above
T4 sequence (P09693 23-116, chain 2 of 2): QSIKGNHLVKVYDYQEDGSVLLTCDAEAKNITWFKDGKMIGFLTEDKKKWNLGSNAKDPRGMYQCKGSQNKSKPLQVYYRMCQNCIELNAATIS
T5 sequence (P07766 23-207, chain 1 of 3): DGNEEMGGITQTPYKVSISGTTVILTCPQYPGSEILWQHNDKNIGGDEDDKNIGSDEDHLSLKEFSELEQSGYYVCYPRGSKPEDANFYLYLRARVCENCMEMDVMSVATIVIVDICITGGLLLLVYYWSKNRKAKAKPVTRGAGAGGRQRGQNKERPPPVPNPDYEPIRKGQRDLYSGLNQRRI
T5 sequence (P04234 22-171, chain 2 of 3): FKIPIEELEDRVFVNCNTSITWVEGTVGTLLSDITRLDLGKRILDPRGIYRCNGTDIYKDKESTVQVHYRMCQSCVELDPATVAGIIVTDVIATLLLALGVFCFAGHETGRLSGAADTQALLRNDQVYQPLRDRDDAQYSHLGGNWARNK
T5 sequence (P09693 23-182, chain 3 of 3): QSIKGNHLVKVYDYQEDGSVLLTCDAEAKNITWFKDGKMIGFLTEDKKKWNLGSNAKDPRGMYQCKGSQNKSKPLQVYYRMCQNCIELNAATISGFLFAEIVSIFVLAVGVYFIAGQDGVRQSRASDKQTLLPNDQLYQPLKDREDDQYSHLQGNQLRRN
T6 sequence (Q95LI5 22-117, chain 1 of 2): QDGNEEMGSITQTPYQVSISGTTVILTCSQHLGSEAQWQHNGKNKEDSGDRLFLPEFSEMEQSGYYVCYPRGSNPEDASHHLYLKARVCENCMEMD
T6 sequence (Q95LI8 22-105, chain 2 of 2): as the sequence (P04234 22-105, chain 2 of 2) above, with I5V, N15K, I20V, S32T, D33N, I34N, T64A, S74N, V83L counted along it

| Binder | Kd [2] | Kd [3] | koff [3] | kon [3] | Kd [4] | koff [4] | kon [4] | Kd [5] | koff [5] | kon [5] | EC50 (read off the curve) [7] | other results |
| --- | --- | --- | --- | --- | --- | --- | --- | --- | --- | --- | --- | --- |
| 030 (bispecific antibody, human IgG1, kappa, lambda, L234A L235A, 1+1, IgG1 LALA knob-into-hole; also called CLDN18.2xCD3 bispecific antibody 030; HB37A6 x HzSP34.24) heavy 1: not shown light 1: not shown heavy 2: not shown light 2: QAVVTQEPSLTVSPGGTVTLTCRSSTGAVTTSNYANWVQQKPGQAPRGLIGGTNKRAPGVPARFSGSLLGDKAALTLLGAQPEDEAEYYCALWYSNLWVFGQGTKLTVLGQPKAAPSVTLFPPSSEELQANKATLVCLISDFYPGAVTVAWKADSSPVKAGVETTTPSKQSNNKYAASSYLSLTPEQWKSHRSYSCQVTHEGSTVEKTVAPTECS | 0.576 nM | 7.46 nM | 0.00516 s⁻¹ | 693000 M⁻¹ s⁻¹ | – | – | – | – | – | – | – | EC50 of killing of DAN-G-hCLDN18.2 cells by PBMC [1]: < 0.1 pM; EC50 of killing of NUGC-4 cells by PBMC [1]: < 0.001 nM; koff [2]: 0.0002 s⁻¹; kon [2]: 347000 M⁻¹ s⁻¹ |
| 032 (bispecific antibody, human IgG1, kappa, lambda, L234A L235A, 1+1, IgG1 LALA knob-into-hole; also called CLDN18.2xCD3 bispecific antibody 032; HB37A6 x HzSP34.87) heavy 1: not shown light 1: not shown heavy 2: not shown light 2: QAVVTQEPSLTVSPGGTVTLTCRSSTGAVTTSNYANWVQQKPGQAPRGLIGGTNKRAPGVPARFSGSLLGDKAALTLLGAQPEDEAEYYCALWYSNLWVFGQGTKLTVLGQPKAAPSVTLFPPSSEELQANKATLVCLISDFYPGAVTVAWKADSSPVKAGVETTTPSKQSNNKYAASSYLSLTPEQWKSHRSYSCQVTHEGSTVEKTVAPTECS | 0.57 nM | 89.1 nM | 0.0718 s⁻¹ | 807000 M⁻¹ s⁻¹ | – | – | – | – | – | – | – | EC50 of killing of DAN-G-hCLDN18.2 cells by PBMC [1]: < 0.1 pM; EC50 of killing of NUGC-4 cells by PBMC [1]: < 0.001 nM |
| 033 (bispecific antibody, human IgG1, kappa, lambda, L234A L235A, 1+1, IgG1 LALA knob-into-hole; also called CLDN18.2xCD3 bispecific antibody 033; HB37A6 x HzSP34.97) heavy 1: not shown light 1: not shown heavy 2: not shown light 2: QAVVTQEPSLTVSPGGTVTLTCRSSTGAVTTSNYANWVQQKPGQAPRGLIGGTNKRAPGVPARFSGSLLGDKAALTLLGAQPEDEAEYYCALWYSNLWVFGQGTKLTVLGQPKAAPSVTLFPPSSEELQANKATLVCLISDFYPGAVTVAWKADSSPVKAGVETTTPSKQSNNKYAASSYLSLTPEQWKSHRSYSCQVTHEGSTVEKTVAPTECS | 0.57 nM | 446 nM | 0.169 s⁻¹ | 379000 M⁻¹ s⁻¹ | – | – | – | – | – | – | – | – |
| hzsp34.95 (antibody, human IgG1, lambda, L234A L235A, V domains shown, CDR mutant of hzsp34.24; IgG1 L234A L235A, lambda) VH: EVQLVESGGGLVQPGGSLKLSCAASGFTFSGSAMNWVRQASGKGLEWVGRIRSKYNNYATYYADSVKDRFTISRDDSKSTLYLQMNSLKTEDTAVYYCARHGNFGQSYVSWFAYWGQGTTVTVSS VL: QAVVTQEPSLTVSPGGTVTLTCRSSTGAVTTSNYANWVQQKPGQAPRGLIGGTNKRAPGVPARFSGSLLGDKAALTLLGAQPEDEAEYYCALWYSNLWVFGQGTKLTVLG | – | – | – | – | – | – | – | – | – | – | – | binding result [4]: no binding; binding result [5]: no binding; binding result [6]: no binding (tested: 900 (no unit printed on the sheet)) |
| hzsp34.116 (antibody, human IgG1, lambda, L234A L235A, V domains shown, CDR mutant of hzsp34.24; IgG1 L234A L235A, lambda) VH: EVQLVESGGGLVQPGGSLKLSCAASGFTFNTYAMNWVRQASGKGLEWVGRIRSKYNNYATYYADSVKDRFTISRDDSKSTLYLQMNSLKTEDTAVYYCARHGNFGQSYVSWFAYWGQGTTVTVSS VL: QAVVTQEPSLTVSPGGTVTLTCRSSTGAVTTSNYANWVQQKPGQAPRGLIGGTNSRAPGVPARFSGSLLGDKAALTLLGAQPEDEAEYYCALWYSDLWVFGQGTKLTVLG | – | – | – | – | 4.11 nM | 0.000914 s⁻¹ | 223000 M⁻¹ s⁻¹ | 16 nM | 0.00286 s⁻¹ | 179000 M⁻¹ s⁻¹ | ~4 nM | – |
| hzsp34.97 (antibody, human IgG1, lambda, L234A L235A, V domains shown, CDR mutant of hzsp34.24; IgG1 L234A L235A, lambda) VH: EVQLVESGGGLVQPGGSLKLSCAASGFTFNTYAMNWVRQASGKGLEWVGRIRSKAGGYATYYADSVKDRFTISRDDSKSTLYLQMNSLKTEDTAVYYCARHGNFGQSYVSWFAYWGQGTTVTVSS VL: QAVVTQEPSLTVSPGGTVTLTCRSSTGAVTTSNYANWVQQKPGQAPRGLIGGTNKRAPGVPARFSGSLLGDKAALTLLGAQPEDEAEYYCALWYSNLWVFGQGTKLTVLG | – | – | – | – | 5.62 nM | 0.00156 s⁻¹ | 278000 M⁻¹ s⁻¹ | 11 nM | 0.00148 s⁻¹ | 135000 M⁻¹ s⁻¹ | ~2 nM | – |
| hzsp34.96 (antibody, human IgG1, lambda, L234A L235A, V domains shown, CDR mutant of hzsp34.24; IgG1 L234A L235A, lambda) VH: EVQLVESGGGLVQPGGSLKLSCAASGFTFNTYAMNWVRQASGKGLEWVGRISLKYNNYATYYADSVKDRFTISRDDSKSTLYLQMNSLKTEDTAVYYCARHGNFGQSYVSWFAYWGQGTTVTVSS VL: QAVVTQEPSLTVSPGGTVTLTCRSSTGAVTTSNYANWVQQKPGQAPRGLIGGTNKRAPGVPARFSGSLLGDKAALTLLGAQPEDEAEYYCALWYSNLWVFGQGTKLTVLG | – | – | – | – | – | – | – | – | – | – | – | binding result [4]: no binding; binding result [5]: no binding; binding result [6]: no binding (tested: 900 (no unit printed on the sheet)) |
| sp34 (antibody, human IgG1, lambda, L234A L235A, V domains shown, mouse variable regions on human IgG1 L234A L235A and lambda constant regions; also called chimeric antibody sp34; mouse sp34) VH: EVQLVESGGGLVQPKGSLKLSCAASGFTFNTYAMNWVRQAPGKGLEWVARIRSKYNNYATYYADSVKDRFTISRDDSQSILYLQMNNLKTEDTAMYYCVRHGNFGNSYVSWFAYWGQGTLVTVSS VL: QAVVTQESALTTSPGETVTLTCRSSTGAVTTSNYANWVQEKPDHLFTGLIGGTNKRAPGVPARFSGSLIGDKAALTITGAQTEDEAIYFCALWYSNLWVFGGGTKLTVLG | – | – | – | – | 0.638 nM | 0.000157 s⁻¹ | 246000 M⁻¹ s⁻¹ | 6.22 nM | 0.00149 s⁻¹ | 240000 M⁻¹ s⁻¹ | ~0.5 nM | Kd [8]: 0.932 nM; koff [8]: 0.0019 s⁻¹; kon [8]: 2.04e+06 M⁻¹ s⁻¹; Kd [9]: 0.646 nM; koff [9]: 0.000795 s⁻¹; kon [9]: 1.23e+06 M⁻¹ s⁻¹; EC50 [10]: 2 nM |
